Measured values: publication PMC9972320
Numbering of substitutions follows the chain as printed. Names may count otherwise.

What was measured:
[1] = molecular target: MSI1 RRM12 K21A/F23A (human, UniProt O43347 20-191, K21A;F23A); assay: ITC; not impaired; 3 mM MgCl2; ITC: 20 mM HEPES pH 7.5, 150 mM NaCl, 3 mM MgCl2, 25 C; 30 uM RNA in cell, 600 uM protein titrant; conditions: protein: recombinant; tags: GST tag removed by PreScission; three-way junction with P4 and pseudoknots
[2] = molecular target: MSI1 RRM12 F63A/F65A (human, UniProt O43347 20-191, F63A;F65A); assay: as above; conditions: protein: recombinant; tags: GST tag removed by PreScission; three-way junction with P4 and pseudoknots
Chain of MSI1 RRM12 F63A/F65A (O43347 20-191 F63A/F65A): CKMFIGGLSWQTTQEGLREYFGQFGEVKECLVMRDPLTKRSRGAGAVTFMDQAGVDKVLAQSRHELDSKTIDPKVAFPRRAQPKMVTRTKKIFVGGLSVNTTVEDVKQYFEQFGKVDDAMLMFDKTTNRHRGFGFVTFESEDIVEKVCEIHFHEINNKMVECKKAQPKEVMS

[3] = molecular target: MSI1 RRM12 (human, UniProt O43347 20-191); assay: ITC; 3 mM MgCl2; ITC: 20 mM HEPES pH 7.5, 150 mM NaCl, 3 mM MgCl2, 25 C; […]; conditions: protein: recombinant, tags: GST tag (pGEX-6p-1) removed by PreScission
Chain of MSI1 RRM12 (O43347 20-191): as the sequence (O43347 20-191 F63A/F65A) above, with A44F, A46F counted along it

Chain of MSI1 RRM12 K21A/F23A (O43347 20-191 K21A/F23A): as the sequence (O43347 20-191 F63A/F65A) above, with K2A, F4A, A44F, A46F counted along it

B1: ZIKV xrRNA2 (structured_RNA)
RNA: GAUAGUCAGGCCGAGAACGCCAUGGCACGGAAGAAGCCAUGCUGCCUGUGAGCCCCUCAGAGGACACUGAGU
- binding result [1]: binds
- binding result [2]: binds
- Kd ([3]; three-way junction with P4 and pseudoknots): 1900 ± 800 nM

B2: DENV4 xrRNA mutant (DxM) (structured_RNA)
RNA: UGUAGUCAGGCCGAGAACGCCACGGUUUGAGCAAACCGUGCUGCCUGUAGCUCCGCCAAUAAUGGGAGGCG
- Kd ([3]; folded): 2540 ± 310 nM

B3: DENV4 xrRNA (structured_RNA)
RNA: B2 RNA with U3A, G13A, A14C, G15U, A16U, A17G, C18U
- binding result ([3]; folded): no binding

B4: ZIKV xrRNA2 P2M/P4M (structured_RNA)
RNA: GAUAGUCAGGCCCGAAAGGCCAUGGCACGGAAGAAGCCAUGCUGCCUGUGAGCCCCUCCCGAAAGGGAGU
- binding result ([3]; folded): no binding
